Reference: the supplement of paper PMC11780869

Test system: Bacillus subtilis
Test: cleaved RNA product abundance (RNA/gDNA barcode ratio) relative to median wild-type variant (ratio to wild type); higher = more accumulation of the downstream cleavage product
Conditions: cleavage site: cggR-gapA (positions -7 to +36 mutated)
How it was run: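 Sequencing of barcodes from gel-selected, reverse-transcribed cleaved RNA and from genomic DNA, with UMI collapsing, yielded a per-construct RNA:gDNA ratio. Scaled to the median construct with the unmutated site, this ratio is the cleaved product abundance. The barcoded reporters (truncated aprE or tetM mRNAs with mutagenized RNase Y cleavage-site windows) were integrated into the B. subtilis chromosome, and cultures grew in LB at 37°C from OD600 0.0003 to 0.3.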

[1] = experiment (reporter, strain, medium): exp 4a: truncated aprE reporter, strain BJT201 with 2% xylose (RNase J1 expressed)
[2] = experiment (reporter, strain, medium): exp 2b: truncated aprE reporter, strain BJT200

Row | Sequence | cleaved RNA product abundance [1] | cleaved RNA product abundance [2] | cleaved RNA product abundance (experiment (reporter, strain, medium): exp 6: tetM reporter, strain 168)
1 | ACAGACGAAGGAGCCGCAAAGAAGTTATTAAGGGATGATTAATACCTCAATATAAATATCTCTCACTTATTTAAA | 0.134 | – | –
2 | ACAGACGAAGGAGCCGCAAAGAAGTTATTAAGGGATGATTAATCACTCAATATAAATATCTCTCACTTATTTAAA | – | 0.152 | –
3 | ACAGACGAAGGAGCCGCAAAGAAGTTATTAAGGGATGATTAATCCATCAATATAAATATCTCTCACTTATTTAAA | – | 0.124 | –
4 | ACAGACGAAGGAGCCGCAAAGAAGTTATTAAGGGATGATTAATCCCACAATATAAATATCTCTCACTTATTTAAA | 0.276 | – | –
5 | ACAGACGAAGGAGCCGCAAAGAAGTTATTAAGGGATGATTAATCCCGCAATATAAATATCTCTCACTTATTTAAA | 0.0868 | – | –
6 | ACAGACGAAGGAGCCGCAAAGAAGTTATTAAGGGATGATTAATCCCTAAATATAAATATCTCTCACTTATTTAAA | 0.599 | – | –
7 | ACAGACGAAGGAGCCGCAAAGAAGTTATTAAGGGATGATTAATCCCTCAAAATAAATATCTCTCACTTATTTAAA | 0.282 | 0.294 | –
8 | ACAGACGAAGGAGCCGCAAAGAAGTTATTAAGGGATGATTAATCCCTCAAGATAAATATCTCTCACTTATTTAAA | 0.304 | – | –
9 | ACAGACGAAGGAGCCGCAAAGAAGTTATTAAGGGATGATTAATCCCTCAATAGAAATATCTCTCACTTATTTAAA | 0.0935 | – | –
10 | ACAGACGAAGGAGCCGCAAAGAAGTTATTAAGGGATGATTAATCCCTCAATATAAACATCTCTCACTTATTTAAA | 0.559 | – | –
11 | ACAGACGAAGGAGCCGCAAAGAAGTTATTAAGGGATGATTAATCCCTCAATATAAATATCTCTCACTTATTTAAA | 0.844 | 0.75 | 0.94
12 | ACAGACGAAGGAGCCGCAAAGAAGTTATTAAGGGATGATTAATCCCTCAATATCAATATCTCTCACTTATTTAAA | 0.0525 | – | –
13 | ACAGACGAAGGAGCCGCAAAGAAGTTATTAAGGGATGATTAATCCCTCAATATTAATATCTCTCACTTATTTAAA | – | 0.164 | –
14 | ACAGACGAAGGAGCCGCAAAGAAGTTATTAAGGGATGATTAATCCCTCAATTTAAATATCTCTCACTTATTTAAA | 0.0965 | – | –
15 | ACAGACGAAGGAGCCGCAAAGAAGTTATTAAGGGATGATTAATCCCTGAATATAAATATCTCTCACTTATTTAAA | 0.458 | – | –
16 | ACAGACGAAGGAGCCGCAAAGAAGTTATTAAGGGATGATTAATCCCTTAATATAAATATCTCTCACTTATTTAAA | 0.554 | – | –
17 | ACAGACGAAGGAGCCGCAAAGAAGTTATTAAGGGATGATTAATCCTTCAATATAAATATCTCTCACTTATTTAAA | 0.469 | 0.306 | –
18 | ACAGACGAAGGAGCCGCAAAGAAGTTATTAAGGGATGATTAATGCCTCAATATAAATATCTCTCACTTATTTAAA | – | 0.117 | –
19 | ACAGACGAAGGAGCCGCAAAGAAGTTATTAAGGGATGATTAATTCCTCAATATAAATATCTCTCACTTATTTAAA | – | 0.271 | –
20 | ACAGACGAAGGAGCCGCAAAGAAGTTATTAAGGGATGATTTATCCCTCAATATAAATATCTCTCACTTATTTAAA | 0.771 | – | –
21 | ACAGACGAAGGAGCCGCAAAGAAGTTATTAAGGGATGCACAATCCCTCAATATAAATATCTCTCACTTATTTAAA | 0.547 | – | –
22 | ACAGACGAAGGAGCCGCAAAGAAGTTATTAAGGGATGCATAAGCCCTCAATATAAATATCTCTCACTTATTTAAA | 0.732 | – | –
23 | ACAGACGAAGGAGCCGCAAAGAAGTTATTAAGGGATGCATAATACCTCAATATAAATATCTCTCACTTATTTAAA | 0.141 | 0.129 | –
24 | ACAGACGAAGGAGCCGCAAAGAAGTTATTAAGGGATGCATAATCACTCAATATAAATATCTCTCACTTATTTAAA | 0.109 | 0.0901 | –
25 | ACAGACGAAGGAGCCGCAAAGAAGTTATTAAGGGATGCATAATCCCACAATATAAATATCTCTCACTTATTTAAA | 0.204 | – | –
26 | ACAGACGAAGGAGCCGCAAAGAAGTTATTAAGGGATGCATAATCCCTAAATATAAATATCTCTCACTTATTTAAA | 0.76 | – | –
